Test results taken from publication PMC9334538 (2022).

Molecular target: WT SARS-CoV-2 RBD (amino acids 321 to 591 of spike) (SARS-CoV-2, UniProt P0DTC2 321-591)
Assay: SPR

B1: aRBD-5-Fc (Fc fusion)
chain: QVQLVESGGGLVQPGGTLRLSCAASGFTLDYYAIGWFRQAPGKEREGVSCISGSGGITNYTDSVKGRFTISRDNAKNTVYLQMNSLKPEDTAVYYCAPVSHTVVAGCAFEAWTDFGSWGQGTQVTVSS
  koff: 0.0143 s⁻¹
